Reference: article PMC2646846

Columns and labels:
Test in all cases: FRET or BRET
[1] = biological target: calpain-2 Cys105Ala-CCPGCC-H6 (rat) labelled with LumioGreen, with the truncated small subunit (rat) (UniProt Q07009)
[2] = biological target: calpain-2 Cys105Ala-eGFP-H6 (rat) with the truncated small subunit (rat) (UniProt Q07009)
[3] = biological target: labeled calpastatin fragments (competition by non-fluorigenic calpains)

Row | Substance | increase in EmAcc/EmDon on addition of calcium [1] | increase in EmAcc/EmDon on addition of calcium [2] | maximal calcium-dependent increase in EmAcc/EmDon (average) [2] | FRET efficiency [2] | further results
1 | cL-ABC-D1 Cys241Ser Ser142Cys labelled with AlexaFluor546 (from UniProt P20810 114-270) (domain or fragment) | 330% | 99.9% |  |  | 
2 | cL-ABC-D1 Cys241Ser Ser142Cys labelled with TMR (from UniProt P20810 114-270) (domain or fragment) | 330% |  |  |  | 
3 | cL-ABC-D1 Cys241Ser Ser148Cys labelled with AlexaFluor546 (from UniProt P20810 114-270) (domain or fragment) | 330% | 99.9% | 0.45 |  | 
4 | cL-ABC-D1 Cys241Ser Ser148Cys labelled with TMR (from UniProt P20810 114-270) (domain or fragment) | 330% |  |  |  | 
5 | cL-ABC-D1 Cys241Ser Ser151Cys labelled with AlexaFluor546 (from UniProt P20810 114-270) (domain or fragment) | 330% | 99.9% | 0.45 | 32.7% | 
6 | cL-ABC-D1 Cys241Ser Ser151Cys labelled with TMR (from UniProt P20810 114-270) (domain or fragment) | 330% |  |  |  | 
7 | cL-ABC-D1 Cys241Ser Ser223Cys labelled with AlexaFluor546 (from UniProt P20810 114-270) (domain or fragment) |  | 34.1% |  | 13.2% | 
8 | cL-ABC-D1-Cys241Ser-Ala246Cys Alexafluor546 (from UniProt P20810 114-270) (domain or fragment) |  | 99.9% | 0.45 | 33.5% | absolute increase in EmAcc/EmDon on addition of calcium (2.5 mM) [2]: 0.456; increase in EmAcc/EmDon on addition of calcium (2.5 mM), single assay [2]: 70%
9 | cL-AtB-D1 Ser142Cys labelled with AlexaFluor546 (from UniProt P20810 114-202) (domain or fragment) |  | 66.7% |  |  | 
10 | cL-AtB-D1 Ser148Cys labelled with AlexaFluor546 (from UniProt P20810 114-202) (domain or fragment) |  | 66.7% | 0.169 |  | 
11 | cL-AtB-D1-Ser151Cys-Alexafluor546 (from UniProt P20810 114-202) (domain or fragment) |  | 66.7% | 0.169 | 25.3% | absolute increase in EmAcc/EmDon on addition of calcium (2.5 mM) [2]: 0.22; increase in EmAcc/EmDon on addition of calcium (2.5 mM), single assay [2]: 64.4%
12 | calpain-2 Cys105Ala (rat), non-fluorigenic, with the truncated small subunit (from UniProt Q07009 20-700) (complex) |  |  |  |  | inhibition of FRET at ~0.35 μM competitor [3]: 50%
13 | porcine erythrocyte calpain 1 (from UniProt P35750 1-714; P04574 1-266) (complex) |  |  |  |  | inhibition of FRET at ~0.35 μM competitor [3]: 50%
